Test results from the supplement of paper PMC11780869.

System: Bacillus subtilis
Experiment: cleaved RNA product abundance (RNA/gDNA barcode ratio) relative to median wild-type variant (ratio to wild type); higher = more accumulation of the downstream cleavage product
Conditions: cleavage site: cggR-gapA (positions -7 to +36 mutated)
Description: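 MPRA in B. subtilis. Mutagenized RNase Y cleavage-site regions (9% mutation rate) were inserted into a barcoded reporter mRNA (truncated aprE or tetM). Cells were grown in LB at 37°C to OD600 0.3. The cleaved RNA isoform was gel-purified and its barcodes counted; the RNA:gDNA barcode ratio was normalised to the median wild-type variant, and the median over barcodes is reported per variant. The printed sequence is the variable window only; the reporter flanks are not printed.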

[1] = experiment (reporter, strain, medium): exp 6: tetM reporter, strain 168
[2] = experiment (reporter, strain, medium): exp 4a: truncated aprE reporter, strain BJT201 with 2% xylose (RNase J1 expressed)
[3] = experiment (reporter, strain, medium): exp 2b: truncated aprE reporter, strain BJT200

Row | Sequence | cleaved RNA product abundance [1] | cleaved RNA product abundance [2] | cleaved RNA product abundance [3]
1 | ACAGACGAAGGAGACGCAAAGAAGTTATTAAGGGATGAATAATCCCTCAATATAAATATCTCTCACTTATTTAAA | 1.03 | – | –
2 | ACAGACGAAGGAGCCACAAAGAAGTTATTAAAGGATGAATAATCCCTCAATATAAATATCTCTCACTTATTTAAA | 0.254 | – | –
3 | ACAGACGAAGGAGCCACAAAGAAGTTATTAAGGGATGAATAATCCCTCAATATAAATATCTCTCACTTATTTAAA | 1.09 | – | –
4 | ACAGACGAAGGAGCCCCAAAGAAGTTATTAAGGGATGAATAATCCCTCAATATAAATATCTCTCACTTATTTAAA | 1.36 | – | –
5 | ACAGACGAAGGAGCCGAAAAGAAGTTATTAAGGGATGAATAATCCCTCAATATAAATATCTCTCACTTATTTAAA | 0.794 | – | –
6 | ACAGACGAAGGAGCCGAATAGAAGTTATTAAGGGATGAATAATCCCTCAATATAAATATCTCTCACTTATTTAAA | 0.727 | – | –
7 | ACAGACGAAGGAGCCGCAAAAAAATTATAAAGGGATGAATAATCCCTCAATATAAATATCTCTCACTTATTTAAA | – | 0.268 | –
8 | ACAGACGAAGGAGCCGCAAAAAAATTATTAAGGGATGAATAATCCCTCAATATAAATATCTCTCACTTATTTAAA | – | 1.04 | 1.1
9 | ACAGACGAAGGAGCCGCAAAAAAATTATTAAGGGATGAATAATCCCTCATTATAAATATCTCTCACTTATTTAAA | – | 0.267 | –
10 | ACAGACGAAGGAGCCGCAAAAAACTTATTAAGGGATGAATAATCCCTCAATATAAATATCTCTCACTTATTTAAA | – | 0.479 | –
11 | ACAGACGAAGGAGCCGCAAAAAACTTATTAAGGGATGATTAATCCCTCAATATAAATATCTCTCACTTATTTAAA | – | – | 0.325
12 | ACAGACGAAGGAGCCGCAAAAAAGATATTAAGGGATGAATAATCCCTCAATATAAATATCTCTCACTTATTTAAA | 0.421 | 0.913 | –
13 | ACAGACGAAGGAGCCGCAAAAAAGCTATTAAGGGATGAATAATCCCTCAATATAAATATCTCTCACTTATTTAAA | – | 0.855 | 0.392
14 | ACAGACGAAGGAGCCGCAAAAAAGGTATTAAGGGATGAATAATCCCTCAATATAAATATCTCTCACTTATTTAAA | – | 0.879 | 1.78
15 | ACAGACGAAGGAGCCGCAAAAAAGTAATTAAGGGATGAATAATCCCTCAATATAAATATCTCTCACTTATTTAAA | – | 0.342 | 0.304
16 | ACAGACGAAGGAGCCGCAAAAAAGTCATTAAGGGATGAATAATCCCTCAATATAAATATCTCTCACTTATTTAAA | – | 0.37 | –
17 | ACAGACGAAGGAGCCGCAAAAAAGTGATTAAGGGATGAATAATCCCTCAATATAAATATCTCTCACTTATTTAAA | – | 0.583 | 0.276
18 | ACAGACGAAGGAGCCGCAAAAAAGTTAATAAGGGATGAATAATCCCTCAATATAAATATCTCTCACTTATTTAAA | – | 0.365 | 0.335
19 | ACAGACGAAGGAGCCGCAAAAAAGTTAATAAGGGATGAATATTCCCTCAATATAAATATCTCTCACTTATTTAAA | – | 0.21 | –
20 | ACAGACGAAGGAGCCGCAAAAAAGTTACTAAGGGATGAATAATCCCTCAATATAAATATCTCTCACTTATTTAAA | – | – | 0.222
21 | ACAGACGAAGGAGCCGCAAAAAAGTTAGTAAGGGATGAATAATCCCTCAATATAAATATCTCTCACTTATTTAAA | – | 0.374 | –

Row | Sequence | cleaved RNA product abundance [1] | cleaved RNA product abundance [2] | cleaved RNA product abundance [3]
22 | ACAGACGAAGGAGCCGCAAAAAAGTTATAAAGAGATGAATAATCCCTCAATATAAATATCTCTCACTTATTTAAA | – | – | 0.14
23 | ACAGACGAAGGAGCCGCAAAAAAGTTATAAAGGGATGAATAATCCCTCAATATAAATATCTCTCACTTATTTAAA | – | 0.581 | 0.4
24 | ACAGACGAAGGAGCCGCAAAAAAGTTATCAAGGGATGAATAATCCCTCAATATAAATATCTCTCACTTATTTAAA | – | 0.507 | –
25 | ACAGACGAAGGAGCCGCAAAAAAGTTATGAAGGGATGAATAATCCCTCAATATAAATATCTCTCACTTATTTAAA | – | 0.453 | –
26 | ACAGACGAAGGAGCCGCAAAAAAGTTATTAAAGGATGAATAATCCCTCAATATAAATATCTCTCACTTATTTAAA | – | 0.224 | 0.164
27 | ACAGACGAAGGAGCCGCAAAAAAGTTATTAACGGATGAATAATCCCTCAATATAAATATCTCTCACTTATTTAAA | – | 0.128 | –
28 | ACAGACGAAGGAGCCGCAAAAAAGTTATTAACGGATGAATAATCCTTCAATATAAATATCTCTCACTTATTTAAA | – | 0.191 | –
29 | ACAGACGAAGGAGCCGCAAAAAAGTTATTAACGGATTAATAATCCCTCAATATAAATATCTCTCACTTATTTAAA | – | 0.142 | –
30 | ACAGACGAAGGAGCCGCAAAAAAGTTATTAAGAGATAAATAATCCCTCAATATAAATATCTCTCACTTATTTAAA | – | 0.0994 | –
31 | ACAGACGAAGGAGCCGCAAAAAAGTTATTAAGAGATGAATAATCCCTCAATATAAATATCTCTCACTTATTTAAA | 0.0928 | 0.133 | 0.126
32 | ACAGACGAAGGAGCCGCAAAAAAGTTATTAAGAGATGAATAATCCGTCAATATAAATATCTCTCACTTATTTAAA | – | 0.0894 | –
33 | ACAGACGAAGGAGCCGCAAAAAAGTTATTAAGAGATGAATAATTCCTCAATATAAATATCTCTCACTTATTTAAA | – | 0.159 | –
34 | ACAGACGAAGGAGCCGCAAAAAAGTTATTAAGCGATGAATAATCCCTCAATATAAATATCTCTCACTTATTTAAA | – | 0.123 | 0.091
35 | ACAGACGAAGGAGCCGCAAAAAAGTTATTAAGGAATAAATAATCCCTCAATATAAATATCTCTCACTTATTTAAA | – | – | 0.0862
36 | ACAGACGAAGGAGCCGCAAAAAAGTTATTAAGGAATGAACAATCCCTCAATATAAATATCTCTCACTTATTTAAA | – | 0.182 | –
37 | ACAGACGAAGGAGCCGCAAAAAAGTTATTAAGGAATGAATAATCCCTCAATATAAATATCTCTCACTTATTTAAA | – | 0.156 | 0.112
38 | ACAGACGAAGGAGCCGCAAAAAAGTTATTAAGGCATGAATAATCCCTCAATATAAATATCTCTCACTTATTTAAA | – | 0.126 | 0.104
39 | ACAGACGAAGGAGCCGCAAAAAAGTTATTAAGGGAAGAATAATCCCTCAATATAAATATCTCTCACTTATTTAAA | – | 0.403 | 0.426
40 | ACAGACGAAGGAGCCGCAAAAAAGTTATTAAGGGACGAATAATCCCTCAATATAAATATCTCTCACTTATTTAAA | – | 0.54 | 0.676
41 | ACAGACGAAGGAGCCGCAAAAAAGTTATTAAGGGATAAATAATCCCTCAATATAAATATCTCTCACTTATTTAAA | – | 0.86 | 0.8
